This is an account of results in patent publication US20250154519.

The test system of data set [1] is AceMYBS1 + AceGBF3 (Actinidia eriantha). The data set can be described thus: cell_activity. As to conditions: dual-luciferase, co-expression.
In data set [2] the test system is AceMYBS1 (Actinidia eriantha). The data set can be described thus: cell_activity. The note with it: dual-luciferase, tobacco leaves.

On to AceGGP3 promoter (2.6 kb, P2660), for which the results for the activity in data set [1] and in data set [2] were 6.67 fold and 3.74 fold, respectively.
